This note sets out measurements from the DeepSol protein solubility set.

The data set can be described thus: soluble on expression in E. coli; label from the status in PepcDB or PDB records.
As for “MSEDWPQHFPPRGTVPDAEVYDQFISASTLQWWYVNAHLTVKGEDNSSLAFFASFFRQAGDNCPTAATKYYDACVWALIDLKNKKCYAESALDPESIDQLKLRLDPAVMGRKLEHVEVALLELLNKGRVPRPDRLLKRKAVYTQHPFSIALDDSCVMTIAQEGSARRYTFSLTNAADDVHVEVCLETQQQPVLHGKDGCVNGMYYYYFPSMSVTGYVVVKGLKREVTGLGWYDREVGGSTAEVDREAKYTWSWLSLHASNMSQLSIFYISGNAEDEGKERVIVETRADGSRHYHDDLIMETNKSWSSLVTFMQYPSEFRLCSASMGLDVTIHTAFDAQEIGTVLVGGAGFYEGVVEGSGVCSGDAVTLRGFFEYKKNAAPYRNTSELLKYVGSYVHGALEEIYPLAASDSWLSENVLGRYAMDRGAPADKICETLFRPVRSIIDRGGKSWRSLILVSCCNALSRQYFDCRRYIAVAELLHVGSLIIDDIQDNSVVRRGGKCVHVEYGVATAINAGSACYFMGPRAARIQDLPPEKASRIYQLYFDVLLAGHAGQGLDIYRLDYLMPKVVETGDASTLFDALDAIHTYKTGGAVGALCSMACVLCEAPTVLSEAVERFGLALGLAFQIVDDALNIRGFEENLKEEAEDIKDGKITYPTAIAMGRLEAADRQTLWAILRKPTKEAADIQQAVELIMKVDATSECFLIARHRLQEMWNALDPLLEDSFPKLLMRTFCSFLVERKY”, the “soluble on expression in E. coli” value is listed as “soluble”.

Take “MSEEGFMLAVLKGIPLIQDIRAEGNSRSWIMTIDGHPARGEIFSEAFSISLFLNDLESLPKPCLAYVTLLLAAHPDVHDYAIQLTADGGWLNGYYTTSSSSELIAIEIEKHLALTCILKNVIRNHHKLYSGGV”: the “soluble on expression in E. coli” value is given as “not soluble”. With “MSEGPKKAGVLGSPIAHSRSPQLHLAAYRALGLHDWTYERIECGAAELPVVVGGFGPEWVGVSVTMPGKFAALRFADERTARADLVGSANTLVRTPHGWRADNTDIDGVAGALGAAAGHALVLGSGGTAPAAVVGLAELGVTDITVVARNSDKAARLVDLGTRVGVATRFCAFDSGGLADAVAAAEVLVSTIPAEVAAGYAGTLAAIPVLLDAIYDPWPTPLAAAVGSAGGRVISGLQMLLHQAFAQVEQFTGLPAPREAMTCALAALD” the entry was “not soluble”; with “MSEISAIWERIEAWHAANDQTENLNPGATAEALAQAEKDMGLTFPPEMRESLLRHDGSVDDSWPTGELLSLERMADERKVWMDLLQDGTFDGNASHNESSEALQPGWWNPAWIPLDADGGGNGAVIDLAPGPQGTVGQVIDMDHEVGPSGPKYVSLAAYLEAMLERLSEAEE”, “soluble”.

“MSEKFEHYYTVEPTSKLKVREARLVLKNGHEYIFKTPSGVYSYGKIDKATQVLLENLKVHGKKVLDLGCGYGVIGIVLKKEYPDLEVYMSDINKRAVEFAKINAKDHNVEVDIRWGNLYEPWEDMKFDMIVCNPPIVAGKKVWMEIVKSAPEFLEEGGSLQIVAYHNKGGRRIRDFMKEVFGNVEELCKTGGIRVYRSVKGLKEDEDNAE”: the “soluble on expression in E. coli” value is reported as “not soluble”. With “MSEKIRVLLYYKYVSIENAQEYAAKHLEFCKSIGLKGRILIADEGINGTVSGDYETTQKYMDWVHSDERFADLWFKIDEENQQAFRKMFVRYKKEIVHLGLEDNNFDSDINPLETTGEYLNPKQFKEALLDEDTVVLDTRNDYEYDLGHFRGAIRPDIRNFRELPQWVRDNKDKFMEKRVVVYCTGGVRCEKFSGWMVREGFKDVGQLHGGIATYGKDPEVQGELWDGAMYVFDDRISVPINHVNPTVISKDYFDGTPCERYVNCANPFCNKQIFASEENETKYVRGCSPECRAHERNRYVQENGLSRQEWAERLEAIGESLPEFVGA” the entry was “not soluble”; with “MSEKLKIVYRPLQELSPYAHNARTHSTEQVAQLVESIKQFGWTNPVLIDEKGEIIAGHGRVMAAEMLKMDSVPVIVLSGLTDEQKQR”, “soluble”. With “MSEKTYELATFAGGCFWCMVKPFDELPDIHKVLSGYAGGHVENPTYEQVKAGTSGHLEVVQITFDPSIFPYEKLLNLYWPQIDPTDDGGQFFDRGPSYRTAIFYHTETQKELAEKSKHSLAESGMFKDPIVTEIRPAAPFYEAEEYHQHFYKKNPEKYATEQKESGREDFIKENWQKK” the entry was “not soluble”; with “MSELRVISLDEVSKHNWEDADQSCWIVISGKVYDVTKFLNEHPGGEEVITQLAGKDATVGFLDVGHSKDAIEMANEYLIGQLPESDVPKVETAAAKPSKNEKSSSLLNDFTEIMTSPTWTNFLIPTTMGLVIYAVYKCMFN”, “not soluble”; with “MSENIRESISAKTLSKDQMETSYVSLKTWIEDSLDLFKNDLLPLLYPLFIHIYFDLIQQNKTDEAKEFFEKYRGDHYNKSEEIKQFESIYTVQHIHENNFAYTFKNSKYHLSMGRYAFDLLINFLEERNLTYILKILNQHLDIKVYVGPKSEERPQGIETSVVDAEIDLTTFLVSRECEDAILGDEQYRYDHLETYVLQLRKQREMKPKDSVYKPNASQIHAEIEKLKDLCKRVAVNKNNLPSICCYTIHNTYEGLTAAEISNDLKLMACGFKDSYVEVYSLTNESLKKLKSSSELAKSDIKTLNEEKFEEVGSSYKLVGHSGPVYGLKFFSSNKFLVSSSQDCTVCLWSLDLLCLLAVYKAHAFPVWCVDVAPNDYFFASGAGDRQAIVWSVMTSKPERLIISSLSDVTAVKFHPNSSYLFTGSSDHRVRMHDISTASVVRIFCGHTDTVTCMDVSHCGKFLASGSKDRTVLLWDIQSSKLLGKYVGHENTVFSVSFCFYGSVLASCGADNSVRLWDRTDHKGGCLGTYYTKNTPLLCVKFGYRNIISCTGPFIS”, “soluble”. With “MSEQKQDVAATEEQQPVLQIQRIYVKDVSFEAPNLPHIFQQEWKPKLGFDLSTETTQVGDDLYEVVLNISVETTLEDSGDVAFICEVKQAGVFTISGLEDVQMAHCLTSQCPNMLFPYARELVSNLVNRGTFPALNLSPVNFDALFVEYMNRQQAENAEEKSEEEQTKH” the entry was “soluble”. Take “MSEQTVQVKTTGKILQSPCGPIIHGLEDVLIKSTSISDIDGEKGILWYRGYRIEELARLSTYEEVSYLILYGRLPTKRELEDYINRMKKYRELHPATVEVIRNLAKAHPMFALEAAVAAEGAYDEDNQKLIEALSVGRYKAEEKELAYRIAEKLVAKMPTIVAYHYRFSRGLEVVRPRDDLGHAANFLYMMFGREPDPLASRGIDLYLILHADHEVPASTFAAHVVASTLSDLYSSVAAAIAALKGPLHGGANEMAVRNYLEIGTPAKAKEIVEAATKPGGPKLMGVGHRVYKAYDPRAKIFKEFSRDYVAKFGDPQNLFAIASAIEQEVLSHPYFQQRKLYPNVDFWSGIAFYYMGIPYEYFTPIFAMSRVVGWVAHVLEYWENNRIFRPRACYIGPHDLQYIPLEQR”: the “soluble on expression in E. coli” value is recorded as “soluble”. Then “MSESLRNTITKIVVEKIRCKSLMFMPSHVCATFPFNTQNALVVDIGHSECIAVPIIEGVTMLNEFESARSICGRQLERRVREQMEKYGQIAELNGERRAITENDWQDIDACKLIETLSLSLICLDKERAENWTKWEASEEGEKPDIETLCKERLFPNNGKIFVVPPVVFETSTEIFFNENLNPTSFDLSLPKLLHKLVSKCPIDLRKKLFPNILLTGGVSTIPGLMKRLEQEIQVIDEKNNSKIAVIVKFYQFSEIKNTPLFVSWLGASLLGSLRETIERKSLTLEEWKNGKLAADWTDIIVKSR”, with “not soluble”; and “MSEVTNELMKTIGGLAKNPNFYLMMGPHHRGQRGHHRGQARLMHLLEKYDGLSVGEIAEILDVRPSSVTSLVDKLEENDFVERIVDEIDKRITLIKLTKKGHAFLKNKKDEADDLSEEIFARLSEEEKDTLLRLLKRVSENLNDVDFGDYISKMVNDSIGRHFKFDDGDIHINI”, with “not soluble”; and “MSEYREIITKAVVAKGRKFTQCTNTISPEKKPSSILGGWIINHKYDAEKIGKTVEIEGYYDINVWYSYADNTKTEVVTERVKYVDVIKLRYRDNNYLDDEHEVIAKVLQQPNCLEVTISPNGNKIVVQAEREFLAEVVGETKVVVEVNPDWEEDDEEDWEDELDEELEDINPEFLVGDPEELEHHHHHH”, with “soluble”. With “MSFAIEIVIKAPMDIVCDYIIEDEKIKEWNTFIIENRYPSNMDKENPRVGDKYITVQKVGKKIFEAEVEILEYDAPHIISLGSEMKQGYSAMTYMLEEDEEGTALTLISEYEPSNFYYKMMYKLTGWISRGLTMEQMERLAECVEAAYHKEDLEHHHHHH” the entry was “not soluble”.

In the case of “MSFDAKSLQQVREQVAARLRLDAGRPWLMVHAGSGGSANNLSIEQYARLIIKLNQACPELQCILTAGPGEERIAEQLAAELLAHGGNGWIYRSDEGLPKFCQVMANAALFVAGSTGPLHIAAALDVPTIGFFPAHRSATPLRWRPLNSEGRHLAFSPPEDSDHPEDMSQLDPKTMAAAIARWAPPFWRTEHLEHHHHHH”, the “soluble on expression in E. coli” value is listed as “soluble”. With “MSFLISFDKSKKHPAHLQLANNLKIALALEYASKNLKPEVDNDNAAMELRNTKEPFLLFDANAILRYVMDDFEGQTSDKYQFALASLQNLLYHKELPQQHVEVLTNKAIENYLVELKEPLTTTDLILFANVYALNSSLVHSKFPELPSKVHNAVALAKKHVPRDSSSFKNIGAVKIQADLTVKPKDSEILPKPNERNILITSALPYVNNVPHLGNIIGSVLSADIFARYCKGRNYNALFICGTDEYGTATETKALEEGVTPRQLCDKYHKIHSDVYKWFQIGFDYFGRTTTDKQTEIAQHIFTKLNSNGYLEEQSMKQLYCPVHNSYLADRYVEGECPKCHYDDARGDQCDKCGALLDPFELINPRCKLDDASPEPKYSDHIFLSLDKLESQISEWVEKASEEGNWSKNSKTITQSWLKDGLKPRCITRDLVWGTPVPLEKYKDKVLYVWFDATIGYVSITSNYTKEWKQWWNNPEHVSLYQFMGKDNVPFHTVVFPGSQLGTEENWTMLHHLNTTEYLQYENGKFSKSRGVGVFGNNAQDSGISPSVWRYYLASVRPESSDSHFSWDDFVARNNSELLANLGNFVNRLIKFVNAKYNGVVPKFDPKKVSNYDGLVKDINEILSNYVKEMELGHERRGLEIAMSLSARGNQFLQENKLDNTLFSQSPEKSDAVVAVGLNIIYAVSSIITPYMPEIGEKINKMLNAPALKIDDRFHLAILEGHNINKAEYLFQRIDEKKIDEWRAKYGGQQV” the entry was “not soluble”; with “MSFLSIPINEKSLSFIKNNFQAQIQALEQFYPIIKNALNLGLNPSSIKFGGGTALSMYYFQHRLSFDMDLFVNDAQCLGFFSPKLWIDNCSHFDSTRYIDQHNHIGVTNKDNIKIDVLVDYASNEGYVDNSKKIFAFDIYIESLENIIAKKITFRKTDNKTRDIFDIAVALHNDNNLFDKLLSSQKITKQDLLTLQNSLQELDKKRYSIEIDMVEPISHYKDLSLSAYDFLIDKIDQIKTATYSNSHDNADDLDNSNEYTPTPKRRR”, “not soluble”; with “MSFRETFLNNKFKFACRDSFLIEYYLEECYMSKKIINVVAAAIEKDGKIFCAQRPEGKSLGGYWEFPGGKLKEGESPEEALIREIYEELNSKIEIISFVNEASYDYDFGTVVMKTFHAKLVCGNLDLLEHQDSVWLEPSRLKTLNWAPVDRPAVELLSKEGHHHHHH”, “soluble”. Then “MSFRIEEKIVLTASDMARLQADLQARGMVPLYPARLIRSVYFDTSGLQMFSDSEEGVLPRKKVRLRRYPEQADAGAVLETKISSVEGRFKTALPVAPETERRLLRQGHFDRDYGTLQAMVAVSYRRAYYSLDGLRITFDRDIAYARPDGQTARREAWTVCELKAPAEAPLDALHHILPVPRRRFSKFCNGVSAVIARALEHHHHHH”, with “not soluble”; and “MSGDRDDPRYPYPKDDAELRRRLTPMQYEVTQHAATEPPFTGEYTDTEDAGIYHCVVCGTALFESGAKYHSGCGWPSYFKPIDGEVIDEKMDYTHGMTRVEVRCNQCGAHLGHVFEDGPRDKTGLRYCINSAALNFEAKPERK”, with “not soluble”.
